Reference: US11377503

Key:
[1] = target: T1, CD39-L2 (ENTPD6) (human, UniProt O75354); assay: ELISA
T1 chain: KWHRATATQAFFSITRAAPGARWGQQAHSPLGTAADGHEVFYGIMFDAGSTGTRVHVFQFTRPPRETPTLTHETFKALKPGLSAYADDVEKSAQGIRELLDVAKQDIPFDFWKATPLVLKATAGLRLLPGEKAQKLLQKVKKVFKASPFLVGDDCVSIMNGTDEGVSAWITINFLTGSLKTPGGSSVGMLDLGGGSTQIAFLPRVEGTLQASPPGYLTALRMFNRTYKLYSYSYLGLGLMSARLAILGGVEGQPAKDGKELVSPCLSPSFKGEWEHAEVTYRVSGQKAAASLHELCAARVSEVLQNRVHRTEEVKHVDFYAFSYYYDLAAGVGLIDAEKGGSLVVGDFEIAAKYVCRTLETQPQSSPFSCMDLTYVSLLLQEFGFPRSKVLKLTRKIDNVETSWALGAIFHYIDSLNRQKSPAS

[2] = target: T2, human CD39 (Ramos cells) (human, UniProt P49961); assay: FACS, Ramos cells, first experiment
T2 chain: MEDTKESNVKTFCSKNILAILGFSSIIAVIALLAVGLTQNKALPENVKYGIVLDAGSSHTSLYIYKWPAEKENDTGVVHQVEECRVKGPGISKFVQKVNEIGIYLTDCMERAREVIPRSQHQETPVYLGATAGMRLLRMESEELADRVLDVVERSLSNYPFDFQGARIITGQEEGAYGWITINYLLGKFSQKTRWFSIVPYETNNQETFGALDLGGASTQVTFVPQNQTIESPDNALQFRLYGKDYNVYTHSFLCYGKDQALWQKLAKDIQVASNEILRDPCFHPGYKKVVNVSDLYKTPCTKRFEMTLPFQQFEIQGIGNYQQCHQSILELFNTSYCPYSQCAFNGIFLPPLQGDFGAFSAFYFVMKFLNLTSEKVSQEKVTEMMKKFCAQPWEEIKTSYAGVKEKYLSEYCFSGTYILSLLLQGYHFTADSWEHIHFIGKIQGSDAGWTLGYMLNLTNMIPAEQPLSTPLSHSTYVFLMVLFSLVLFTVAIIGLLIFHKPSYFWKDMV

[3] = target: T3, CD39-L4 (ENTPD5) (human, UniProt O75356); assay: ELISA
T3 chain: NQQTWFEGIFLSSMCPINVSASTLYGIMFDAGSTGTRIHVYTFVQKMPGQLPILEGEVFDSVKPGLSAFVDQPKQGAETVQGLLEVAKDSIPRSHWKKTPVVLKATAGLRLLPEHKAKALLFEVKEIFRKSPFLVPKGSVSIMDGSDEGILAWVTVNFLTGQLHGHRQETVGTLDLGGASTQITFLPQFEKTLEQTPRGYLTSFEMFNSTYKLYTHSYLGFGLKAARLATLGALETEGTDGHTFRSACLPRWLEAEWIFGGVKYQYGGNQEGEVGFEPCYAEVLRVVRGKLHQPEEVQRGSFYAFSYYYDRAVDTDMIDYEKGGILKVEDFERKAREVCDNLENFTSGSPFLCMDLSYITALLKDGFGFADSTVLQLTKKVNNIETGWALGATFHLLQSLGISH

[4] = target: T2, human CD39 (Ramos cells); assay: FACS, Ramos cells, second experiment
[5] = target: T4, CD39-L3 (ENTPD3) (human, UniProt O75355); assay: ELISA
T4 chain: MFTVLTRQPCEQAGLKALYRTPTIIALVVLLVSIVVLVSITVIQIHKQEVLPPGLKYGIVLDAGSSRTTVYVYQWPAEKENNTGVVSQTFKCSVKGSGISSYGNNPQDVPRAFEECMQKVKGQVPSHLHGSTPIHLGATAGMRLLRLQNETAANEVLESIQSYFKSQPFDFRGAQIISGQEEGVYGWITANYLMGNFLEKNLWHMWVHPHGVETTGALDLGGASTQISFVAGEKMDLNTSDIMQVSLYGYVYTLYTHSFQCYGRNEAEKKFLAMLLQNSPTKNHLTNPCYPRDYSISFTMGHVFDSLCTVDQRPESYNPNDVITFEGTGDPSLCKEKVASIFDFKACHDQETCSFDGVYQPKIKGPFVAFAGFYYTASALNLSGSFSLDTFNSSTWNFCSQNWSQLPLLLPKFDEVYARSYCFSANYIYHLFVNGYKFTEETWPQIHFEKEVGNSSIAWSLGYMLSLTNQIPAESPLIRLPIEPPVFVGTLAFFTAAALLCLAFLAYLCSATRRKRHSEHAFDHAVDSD

[6] = target: T5, CD39-L1 (ENTPD2) (human, UniProt Q9Y5L3); assay: ELISA
T5 chain: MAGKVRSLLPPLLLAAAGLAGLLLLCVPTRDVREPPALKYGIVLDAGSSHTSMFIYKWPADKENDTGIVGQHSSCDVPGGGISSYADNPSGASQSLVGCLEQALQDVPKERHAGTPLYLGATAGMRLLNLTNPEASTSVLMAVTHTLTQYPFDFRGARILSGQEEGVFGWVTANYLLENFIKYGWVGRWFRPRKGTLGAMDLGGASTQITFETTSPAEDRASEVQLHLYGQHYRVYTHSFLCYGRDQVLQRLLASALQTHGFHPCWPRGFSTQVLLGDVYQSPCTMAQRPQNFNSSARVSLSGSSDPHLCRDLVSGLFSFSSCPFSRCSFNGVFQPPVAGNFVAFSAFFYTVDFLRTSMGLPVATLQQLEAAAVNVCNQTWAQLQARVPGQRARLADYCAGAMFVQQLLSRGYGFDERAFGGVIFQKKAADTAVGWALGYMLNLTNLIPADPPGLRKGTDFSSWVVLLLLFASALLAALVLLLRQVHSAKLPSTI

[7] = target: T6, CD39 mutant 19 (human, UniProt P49961); assay: FACS
T6 chain: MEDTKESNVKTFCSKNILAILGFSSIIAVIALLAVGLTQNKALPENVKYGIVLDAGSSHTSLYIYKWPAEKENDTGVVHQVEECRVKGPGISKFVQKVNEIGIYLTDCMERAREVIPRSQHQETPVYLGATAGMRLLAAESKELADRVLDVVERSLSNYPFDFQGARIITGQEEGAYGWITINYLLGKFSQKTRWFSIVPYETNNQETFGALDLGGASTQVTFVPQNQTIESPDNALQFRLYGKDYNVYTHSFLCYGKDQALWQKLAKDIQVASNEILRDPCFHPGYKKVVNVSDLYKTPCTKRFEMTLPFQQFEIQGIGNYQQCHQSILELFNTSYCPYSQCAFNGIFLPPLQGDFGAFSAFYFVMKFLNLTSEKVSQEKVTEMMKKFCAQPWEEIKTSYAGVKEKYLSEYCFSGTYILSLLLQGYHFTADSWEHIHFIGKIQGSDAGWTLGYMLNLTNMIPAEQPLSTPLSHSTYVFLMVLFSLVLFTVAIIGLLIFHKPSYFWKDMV

[8] = target: T7, murine CD39 (CHO-moCD39) (mouse, UniProt P55772); assay: FACS
T7 chain: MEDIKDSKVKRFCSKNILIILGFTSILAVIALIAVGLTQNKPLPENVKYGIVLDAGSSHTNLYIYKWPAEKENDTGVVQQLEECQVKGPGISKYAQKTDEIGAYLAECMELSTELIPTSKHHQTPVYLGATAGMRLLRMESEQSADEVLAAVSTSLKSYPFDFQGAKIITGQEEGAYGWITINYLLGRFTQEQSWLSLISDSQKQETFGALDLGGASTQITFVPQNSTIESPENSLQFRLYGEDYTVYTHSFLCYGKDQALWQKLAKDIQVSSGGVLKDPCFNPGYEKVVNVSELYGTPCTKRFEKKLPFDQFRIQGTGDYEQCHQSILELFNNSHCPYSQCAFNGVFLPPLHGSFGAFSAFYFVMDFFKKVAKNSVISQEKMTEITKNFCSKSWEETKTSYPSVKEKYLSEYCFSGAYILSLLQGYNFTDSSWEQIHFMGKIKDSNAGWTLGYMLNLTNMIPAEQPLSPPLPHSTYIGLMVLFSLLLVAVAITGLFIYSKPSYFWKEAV

- binding result [1]: no binding
- EC50 [2]: 0.16 µg/mL
- binding result [3]: no binding
- EC50 [4]: 0.19 µg/mL
- binding result [5]: no binding
- binding result [6]: no binding
- binding result [7]: no binding
- binding result [8]: no binding
B1: I-394 (antibody, V domains shown)
VH: EVKLQQSGPELVKPGASVKMSCKASGYTFTDYNMHWVKQSPGRTLEWIGYIVPLNGGSTFNQKFKGRATLTVNTSSRTAYMELRSLTSEDSAAYYCARGGTRFAYWGQGTLVTVSA
VL: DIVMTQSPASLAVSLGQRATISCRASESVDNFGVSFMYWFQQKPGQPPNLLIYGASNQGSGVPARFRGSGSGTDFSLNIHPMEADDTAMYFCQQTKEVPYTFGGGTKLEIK
